For the data set, the system named is MS2 coat protein. As to the kind of experiment: apparent KD of MS2 coat protein; designed switch direction (-1 OFF switch, 1 ON switch): 1; higher = weaker reporter binding. Summed up: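 SNAP-549-labelled MS2 coat protein was titrated, doubling from 0.7 or 1.5 nM to 3 µM, over designed RNA switches transcribed on Illumina chips by stalled E. coli RNA polymerase. Runs were done without input, with 200 uM small-molecule ligand, or with an oligonucleotide input. Apparent KD is the per-design median over clusters of curve-fitted normalised fluorescence.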

[1] abbreviates: input ligand: microRNA oligo, concentration not stated.
Setting [2] is: Eterna round: R95, input ligand: FMN 200 uM.
The mark [3] stands for this setting: Eterna round: R95, input ligand: microRNA oligo, concentration not stated.
[4] abbreviates: Eterna round: R95, input ligand: none.

With “CGUAGGAUAUGCAGAGGAUCACCCUGUAGAAGGACGAUUACGUAGGAUAUGCAGAGGAUCACCCUGUAGAAGGACGACUAAUCU [pwkr ssNG3 DX 2xF5 +2xFMN.2] (Eterna round: R96, puzzle: Same State NG 3)”, the “apparent KD of MS2 coat protein” value is 174 nM (input ligand: FMN 200 uM), 105 nM under setting [1] and 129 nM (input ligand: none).

For “CGUCCGGCCUGAGCUGGACGGAAGCAUGUACAUGAGGAUCACCCAUGUUCAUGUGCAGGCUUUUUGCUCGUCUUGUG [JL-shm-2.08 JL mod] (puzzle: Sensor for hsa-mir-208a)”, the “apparent KD of MS2 coat protein” value is, setting by setting: under setting [2], 105 nM; under setting [3], 12.5 nM; under setting [4], 127 nM.

As for “CGUUCUUACUCGGUACGGUGAGUAGAGGAACAUGAGGAUCACCCAUGUUUGAGCUUUUUGCUCGUGAUUAACAGUUG [JR_SHM208a_Sub015] (puzzle: Sensor for hsa-mir-208a)”, the “apparent KD of MS2 coat protein” value was found to be 92.2 nM under setting [2], 102 nM under setting [3] and 149 nM under setting [4].

In the case of “CUAAACAGAGGAGGAUAUGCAGAGGAUCACCCUGUAGAAGGCCACAGAGGAGGAUAUGCAGAGGAUCACCCUGUAGAAGGCCAC [pwkr ssNG DX.7] (Eterna round: R96, puzzle: Same State NG 1)”, the “apparent KD of MS2 coat protein” value is, setting by setting: (input ligand: FMN 200 uM) 121 nM; under setting [1], 210 nM; (input ligand: none) 222 nM.

On to “CUCAAACAUGAGGAUCACCCAUGUGUUGUCGUGGGAGGAUAUCCCAGUUCGGUGGCGUCGGGAGAAGGCCUAUGUC (Eterna round: R96, puzzle: Same State 1)”, for which the “apparent KD of MS2 coat protein” value by setting is: (input ligand: FMN 200 uM) 67.8 nM; under setting [1], 106 nM; (input ligand: none) 129 nM.

On to “CUCAAACAUGAGGAUCACCCAUGUGUUGUCGUGGGAGGAUAUCCCAGUUCGGUGGCGUCGGGAGAAGGCCUAUGUC [× ×•×ª×• ×ž×“×™× ×” × ×—×ª-16] (puzzle: Same State 1)”, for which the “apparent KD of MS2 coat protein” value under setting [2] stood at 50.4 nM, the “apparent KD of MS2 coat protein” value under setting [3] turned out to be 100 nM and the “apparent KD of MS2 coat protein” value under setting [4] worked out at 129 nM.

Consider “CUCCCAGCGGGAGGAUAUGGUGCCUUGUUGGUGCUAGAAGGUCCAACAUGAGGAUCACCCAUGUGGGAGUGGUUGAGAGACCUC [SS NG10LRO12] (Eterna round: R96, puzzle: Same State NG 1)”, for which the “apparent KD of MS2 coat protein” value amounted to 218 nM (input ligand: FMN 200 uM), 166 nM under setting [1] and 278 nM (input ligand: none).

With “CUGAAAUGUCAAGGAUAUCACGUCGAUUAGACGUGAGAAGGUGAUCUACACAUGAGGAUCACCCAUGUGUUACAUGGGAGUCAG [Brourd's SSNG1/1-A2 mod 17] (Eterna round: R96, puzzle: Same State NG 1)”, the “apparent KD of MS2 coat protein” value by setting is: (input ligand: FMN 200 uM) 325 nM; under setting [1], 448 nM; (input ligand: none) 601 nM.

“CUGAAAUGUCAAGGAUAUCACGUCGAUUAGACGUGAGAAGGUGAUCUGCACAUGAGGAUCACCCAUGUGUUACAUGGGAAUCAG [Brourd's SSNG1/1-A2 mod 15] (Eterna round: R96, puzzle: Same State NG 1)”: the “apparent KD of MS2 coat protein” value was found to be 289 nM (input ligand: FMN 200 uM), 90.3 nM under setting [1] and 624 nM (input ligand: none).

With “CUGAGCAAUCAAGGAUAUCACGUCGAUUAGACGUGAGAAGGUGAUCAUCACAUGAGGAUCACCCAUGUGUUACAUGGAGCUCAG [Brourd's SSNG1/1-A2 mod 4] (Eterna round: R96, puzzle: Same State NG 1)”, under setting [1], the “apparent KD of MS2 coat protein” value turned out to be 610 nM.

In the case of “CUGCAACAUGAGGAUCACCCAUGUAACCCAAUUAUAGGAUAUGUGAUGGUGAUCGACAUGACAGAAGGGUGAUUGG [Arinra] (Eterna round: R96, puzzle: Same State 1)”, the “apparent KD of MS2 coat protein” value (input ligand: FMN 200 uM) amounted to 174 nM, the “apparent KD of MS2 coat protein” value under setting [1] is 29.7 nM and the “apparent KD of MS2 coat protein” value (input ligand: none) is 41.8 nM.

“CUGCAACAUGAGGAUCACCCAUGUAACCCAAUUAUAGGAUAUGUGAUGGUGAUCGACAUGACAGAAGGGUGAUUGG [Arinra] (puzzle: Same State 1)”: the “apparent KD of MS2 coat protein” value reads like this: under setting [2], 199 nM; under setting [3], 99.4 nM; under setting [4], 46.4 nM.

On to “CUGGCGCGCACAGGAUAUGCGGCCGGCAAGGUGGCAGAAGGGUGAUAAACAGACGACAUGAGGAUCACCCAUGUCGCAAAGAAU [Arsobe] (Eterna round: R96, puzzle: Same State NG 1)”, for which the “apparent KD of MS2 coat protein” value (input ligand: FMN 200 uM) came to 214 nM, the “apparent KD of MS2 coat protein” value under setting [1] is 71.3 nM and the “apparent KD of MS2 coat protein” value (input ligand: none) is 85.4 nM.

With “CUUUUUAAUGCAGGAUAUGAUCAACAUGAGGAUCACCCAUGUGGCGUUGUGAGUAGGGAGAGUGAUCAGAAGGGCGUCUCCUCG [SS-NG2-LRO09] (Eterna round: R96, puzzle: Same State NG 2)”, the “apparent KD of MS2 coat protein” value runs as follows: (input ligand: FMN 200 uM) 43.9 nM; under setting [1], 38 nM; (input ligand: none) 56.6 nM.

As to “CUUUUUAAUGCAGGAUAUGAUCAACAUGAGGAUCACCCAUGUGGUGUUGUGAGUAAGGAGAGUGAUCAGAAGGGCAUCUCCUCA [SS-NG2-LRO06] (Eterna round: R96, puzzle: Same State NG 2)”, the “apparent KD of MS2 coat protein” value is, setting by setting: (input ligand: FMN 200 uM) 186 nM; under setting [1], 73.6 nM; (input ligand: none) 83.6 nM.

“GAAAAACAUGAGGAUCACCCAUGUGAGAAUAUGGGAGGAUAUUCAAAGACGAAAGUCAAAGAAGAAGGCCUAAAAG [Mat - Same State 1 - Eli mod - 37] (Eterna round: R96, puzzle: Same State 1)”: the “apparent KD of MS2 coat protein” value reads like this: (input ligand: FMN 200 uM) 33.4 nM; under setting [1], 143 nM; (input ligand: none) 211 nM.

With “GAAAGCAUGGGAGGAUAUAGCCUCUAUGGAGGGCUAGAAGGCCCUGGCCACAUGAGGAUCACCCAUGUGAAAUAAAUAGAAGAA [MOD Raarceza] (Eterna round: R96, puzzle: Same State NG 1)”, the “apparent KD of MS2 coat protein” value (input ligand: FMN 200 uM) was found to be 453 nM, the “apparent KD of MS2 coat protein” value under setting [1] is 2.74 nM and the “apparent KD of MS2 coat protein” value (input ligand: none) was determined as 188 nM.

For the sequence “GAAGAACAUGAGGAUCACCCAUGUAAGCGGAAGCUAGGAUAUGCGGGAAAGAAAAGAGAAGCAGAAGGAGUAGGAA [JR_SS1_Sub028] (puzzle: Same State 1)”, the “apparent KD of MS2 coat protein” value came out at 33 nM under setting [2], 44.7 nM under setting [3] and 68.2 nM under setting [4].

In the case of “GAAGAACAUGAGGAUCACCCAUGUAGGCGGAAGCUAGGAUAUGCGGGAAAGAAGAGAGAAGCAGAAGGAGUAGGUA [JR_SS1_Sub030] (puzzle: Same State 1)”, the “apparent KD of MS2 coat protein” value by setting is: under setting [2], 28.1 nM; under setting [3], 28.3 nM; under setting [4], 38.2 nM.

Consider “GAAUUAAGAGUAGGAUAUGUGGGCGAGCUGCCACCCACAUGAGGAUCACCCAUGUAUGGACACUCACAGAAGGGCUUAUUCAAC [Eternabot solution 37] (Eterna round: R96, puzzle: Same State NG 2)”, for which the “apparent KD of MS2 coat protein” value reads like this: (input ligand: FMN 200 uM) 68.8 nM; under setting [1], 60.5 nM; (input ligand: none) 64.8 nM.

As to “GACAUUCUAUCUCAGGAUAUCAUGUCAAAGACAUGAGGAUCACCCAUGUACCAGGAAACUGGUUAUGAGAAGGGAGAUAGAAUGG [Mat - Same State 2 - Mod - D47] (puzzle: Same State 2)”, the “apparent KD of MS2 coat protein” value came to 122 nM under setting [2], 119 nM under setting [3] and 221 nM under setting [4].

Turning to “GACGUGAAGGCAGGAUAUGGGAAAGGAAGUGUACCAGAAGGGCCUGGAAAACAUGAGGAUCACCCAUGUGAACCCACGUCAGUU [PowerStrip SSNG 1.26] (Eterna round: R96, puzzle: Same State NG 1)”, the “apparent KD of MS2 coat protein” value runs as follows: (input ligand: FMN 200 uM) 16 nM; under setting [1], 35.4 nM; (input ligand: none) 27.9 nM.

For “GAGAGACAUGAGGAUCACCCAUGUAGGAGAAGACAAGGAUAUGUAGGAGAAGGAGAAGGAACAGAAGGUGUGGGAG [JR_SS1_Sub051] (puzzle: Same State 1)”, the “apparent KD of MS2 coat protein” value under setting [2] came to 57.9 nM, the “apparent KD of MS2 coat protein” value under setting [3] came to 96.6 nM and the “apparent KD of MS2 coat protein” value under setting [4] stood at 109 nM.

For the sequence “GAGAGAGGAAGCGAGGAUAUCGUGUUGAGUACAUGAGGAUCACCCAUGUUGUAGGUAGAGGUAGGCGAGAAGGCGCAGGAGAGGU [JR_SS2_Sub098] (puzzle: Same State 2)”, the “apparent KD of MS2 coat protein” value under setting [2] stood at 106 nM, the “apparent KD of MS2 coat protein” value under setting [3] amounted to 48.8 nM and the “apparent KD of MS2 coat protein” value under setting [4] was 122 nM.

“GAGAGAUGGCGAGGAUAUUCGGUGAUAAUGAUGGAAGAAGGCGCUGACAUGAGGAUCACCCAUGUGGGAAUAAUCCAGAGAGAG [Parity 16 - Jieux - Same State NG 1] (Eterna round: R96, puzzle: Same State NG 1)”: the “apparent KD of MS2 coat protein” value by setting is: (input ligand: FMN 200 uM) 306 nM; under setting [1], 154 nM; (input ligand: none) 257 nM.

In the case of “GAGCCAGUCCGAGGAUAUUCAUAACAUGAGGAUCACCCAUGUAGGCUCAGAAAAGAAGAGCCUUGGGAGAAGGCGGACUGGCUC [Xeonanisa<<5] (Eterna round: R96, puzzle: Same State NG 2)”, the “apparent KD of MS2 coat protein” value (input ligand: FMN 200 uM) was 9.88 nM, the “apparent KD of MS2 coat protein” value under setting [1] amounted to 30.2 nM and the “apparent KD of MS2 coat protein” value (input ligand: none) turned out to be 43.8 nM.

As for “GAGCCAGUCCGAGGAUAUUCAUAUUAACACAUGAGGAUCACCCAUGUAGGCUCAGAAGAGCCCUGGGAGAAGGCGGACUGGCUC [SS-NG2-LRO15] (Eterna round: R96, puzzle: Same State NG 2)”, the “apparent KD of MS2 coat protein” value is 85.5 nM (input ligand: FMN 200 uM), 455 nM under setting [1] and 1100 nM (input ligand: none).

For “GAGCGCUGUCGAGAGGAUAUGCGGUGAUGGACAUGAGGAUCACCCAUGUUAGCGAUAGCAUUACGGUAGAAGGCUCUACAGCUGC [Mat - Same State 2 - Mod of UCT - D87] (puzzle: Same State 2)”, the “apparent KD of MS2 coat protein” value under setting [3] was found to be 22.3 nM.

Values taken from the supplement of paper PMC9170038.
